The text below walks through data of US12295987B2, “Method of using a GIP/GLP1 co-agonist for diabetes” (Eli Lilly and Company, priority 2018, dated 2025).

Numbered stars: 1 amine (or outer) side, 2 acyl side, 3 side chain; on linkers, the order of the positions; unused ones are H or OH. Square brackets hold non-standard residues; d marks the D form. Side chains are listed from the residue outwards. Ends that are not written are not given here. * marks the point of attachment. C20 diacid = O=C(O)CCCCCCCCCCCCCCCCCCC(=O)*; αMePhe(2-F) = C[C@](N)(Cc1ccccc1F)C(=O)O; γGlu = O=C(O)[C@H](CCC(=O)[*:2])N[*:1]; αMeL = CC(C)C[C@](C)(N)C(=O)O; AEEA = NCCOCCOCC(=O)O; Aib = CC(C)(N)C(=O)O

For this experiment, the target named is T1, human gastric inhibitory peptide receptor (hGIPR) (Homo sapiens, UniProt P48546).
T1 construct: expressed in transfected cells; host or cells: HEK293
T1 sequence (P48546 22-466): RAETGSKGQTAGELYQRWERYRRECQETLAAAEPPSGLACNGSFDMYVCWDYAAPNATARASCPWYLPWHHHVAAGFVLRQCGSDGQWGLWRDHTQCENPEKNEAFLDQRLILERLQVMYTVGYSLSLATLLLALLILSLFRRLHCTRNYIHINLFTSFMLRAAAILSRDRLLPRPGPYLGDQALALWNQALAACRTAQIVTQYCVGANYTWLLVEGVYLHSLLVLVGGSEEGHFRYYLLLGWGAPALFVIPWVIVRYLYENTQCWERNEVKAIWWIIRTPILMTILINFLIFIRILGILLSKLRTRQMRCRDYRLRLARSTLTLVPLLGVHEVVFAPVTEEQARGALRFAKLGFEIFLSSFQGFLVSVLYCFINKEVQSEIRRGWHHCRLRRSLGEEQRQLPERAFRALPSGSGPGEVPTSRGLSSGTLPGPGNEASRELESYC
The experiment in a line: cAMP pharmacological functional assay in presence of 0.1% casein, hGIPR. Format: cell-based. The conditions noted are these: ratio of hGIPR to hGLP1R cAMP EC50 ratios.
In the case of “Y-Aib-EGT-αMeF(2F)-TSDHSI-αMeL-LDEK((2-[2-(2-Amino-ethoxy)-ethoxy]-acetyl)2-(γGlu)-CO—(CH2)18—CO2H)AQ-Aib-EFIEYLIEGGPSSGAPPPS-NH2 (Y[Aib]EGT[αMePhe(2-F)]TSDHSI[αMeL]LDEK([AEEA-AEEA-γGlu-C20 diacid])AQ[Aib]EFIEYLIEGGPSSGAPPPS-NH2; N-terminus assumed; SMILES CC[C@H](C)[C@H](NC(=O)[C@H](CC(C)C)NC(=O)[C@H](Cc1ccc(O)cc1)NC(=O)[C@H](CCC(=O)O)NC(=O)[C@@H](NC(=O)[C@H](Cc1ccccc1)NC(=O)[C@H](CCC(=O)O)NC(=O)C(C)(C)NC(=O)[C@H](CCC(N)=O)NC(=O)[C@H](C)NC(=O)[C@H](CCCCNC(=O)COCCOCCNC(=O)COCCOCCNC(=O)CC[C@H](NC(=O)CCCCCCCCCCCCCCCCCCC(=O)O)C(=O)O)NC(=O)[C@H](CCC(=O)O)NC(=O)[C@H](CC(=O)O)NC(=O)[C@H](CC(C)C)NC(=O)[C@](C)(CC(C)C)NC(=O)[C@@H](NC(=O)[C@H](CO)NC(=O)[C@H](Cc1c[nH]cn1)NC(=O)[C@H](CC(=O)O)NC(=O)[C@H](CO)NC(=O)[C@@H](NC(=O)[C@](C)(Cc1ccccc1F)NC(=O)[C@@H](NC(=O)CNC(=O)[C@H](CCC(=O)O)NC(=O)C(C)(C)NC(=O)[C@@H](N)Cc1ccc(O)cc1)[C@@H](C)O)[C@@H](C)O)[C@@H](C)CC)[C@@H](C)CC)C(=O)N[C@@H](CCC(=O)O)C(=O)NCC(=O)NCC(=O)N1CCC[C@H]1C(=O)N[C@@H](CO)C(=O)N[C@@H](CO)C(=O)NCC(=O)N[C@@H](C)C(=O)N1CCC[C@H]1C(=O)N1CCC[C@H]1C(=O)N1CCC[C@H]1C(=O)N[C@@H](CO)C(N)=O) [Peptide 154]”, the “[hGIPR/hGLP1R] EC50 Ratio” value is given as 4.80. For the substance “Y-Aib-EGT-αMeF(2F)-TSDHSI-αMeL-LDEK((2-[2-(2-Amino-ethoxy)-ethoxy]-acetyl)2-(γGlu)-CO—(CH2)18—CO2H)AQ-Aib-TFI-(D-Glu)-YLIEGGPSSG-NH2 (Y[Aib]EGT[αMePhe(2-F)]TSDHSI[αMeL]LDEK([AEEA-AEEA-γGlu-C20 diacid])AQ[Aib]TFI[dE]YLIEGGPSSG-NH2; N-terminus assumed; SMILES CC[C@H](C)[C@H](NC(=O)[C@H](CC(C)C)NC(=O)[C@H](Cc1ccc(O)cc1)NC(=O)[C@@H](CCC(=O)O)NC(=O)[C@@H](NC(=O)[C@H](Cc1ccccc1)NC(=O)[C@@H](NC(=O)C(C)(C)NC(=O)[C@H](CCC(N)=O)NC(=O)[C@H](C)NC(=O)[C@H](CCCCNC(=O)COCCOCCNC(=O)COCCOCCNC(=O)CC[C@H](NC(=O)CCCCCCCCCCCCCCCCCCC(=O)O)C(=O)O)NC(=O)[C@H](CCC(=O)O)NC(=O)[C@H](CC(=O)O)NC(=O)[C@H](CC(C)C)NC(=O)[C@](C)(CC(C)C)NC(=O)[C@@H](NC(=O)[C@H](CO)NC(=O)[C@H](Cc1c[nH]cn1)NC(=O)[C@H](CC(=O)O)NC(=O)[C@H](CO)NC(=O)[C@@H](NC(=O)[C@](C)(Cc1ccccc1F)NC(=O)[C@@H](NC(=O)CNC(=O)[C@H](CCC(=O)O)NC(=O)C(C)(C)NC(=O)[C@@H](N)Cc1ccc(O)cc1)[C@@H](C)O)[C@@H](C)O)[C@@H](C)CC)[C@@H](C)O)[C@@H](C)CC)C(=O)N[C@@H](CCC(=O)O)C(=O)NCC(=O)NCC(=O)N1CCC[C@H]1C(=O)N[C@@H](CO)C(=O)N[C@@H](CO)C(=O)NCC(N)=O) [Peptide 167]”, the “[hGIPR/hGLP1R] EC50 Ratio” value came to 5.98. On to “Y-Aib-EGT-αMeF(2F)-TSDHSI-αMeL-LDEK((2-[2-(2-Amino-ethoxy)-ethoxy]-acetyl)2-(γGlu)-CO—(CH2)18—CO2H)AQ-Aib-TFI-(D-Glu)-YLIEGGPSSGAPPPS-NH2 (YXEGTXTSDHSIXLDEKAQXTFIXYLIEGGPSSGAPPPS; Aib, αMeF(2F), αMeL, D-Glu; lipidated K; C-terminal amide; (2)..(2) Xaa at position 2 is Aib; (6)..(6) Xaa at position 6 is alpha-methyl-Phe(2F); (13)..(13) Xaa at position 13 is alpha-methyl-Leu; MOD_RES (17)..(17) Lys at position 17 is chemically modified by conjugation of the epsilon-amino group of the Lys side chain with (2-[2-(2-amino-ethoxy)-ethoxy]-acetyl)2-(gamma-Glu)-CO-(CH2)18- CO2H; (20)..(20) Xaa at position 20 is Aib; (24)..(24) Xaa at positi) [Peptide 168]”, for which the “[hGIPR/hGLP1R] EC50 Ratio” value is reported as 9.69.

On to “Y-Aib-EGT-αMeF(2F)-TSDHSI-αMeL-LDEK((2-[2-(2-Amino-ethoxy)-ethoxy]-acetyl)2-(εK)-CO—(CH2)16—CO2H)AQ-Aib-TFI-(D-Glu)-YLIEGGPSSGAPPPS-NH2 (YXEGTXTSDHSIXLDEKAQXTFIXYLIEGGPSSGAPPPS; Aib, αMeF(2F), αMeL, D-Glu; εK-lipidated K; amide; (2)..(2) Xaa at position 2 is Aib; (6)..(6) Xaa at position 6 is alpha-methyl-Phe(2F); (13)..(13) Xaa at position 13 is alpha-methyl-Leu; MOD_RES (17)..(17) Lys at position 17 is chemically modified by conjugation of the epsilon-amino group of the Lys side chain with (2-[2-(2-amino-ethoxy)-ethoxy]-acetyl)2-(epsilon-Lys)-CO-(CH2)16- CO2H; (20)..(20) Xaa at position 20 is Aib; (24)..(24) Xaa at posi) [Peptide 176]”, for which the “[hGIPR/hGLP1R] EC50 Ratio” value stood at 4.71.

As for “Y-Aib-EGT-αMeF(2F)-TSDHSI-αMeL-LDEK((2-[2-(2-Amino-ethoxy)-ethoxy]-acetyl)2-CO—(CH2)18—CO2H)AQ-Aib-TFI-(D-Glu)-YLIEGGPSSGAPPPS-NH2 (YXEGTXTSDHSIXLDEKAQXTFIXYLIEGGPSSGAPPPS; Aib, αMeF(2F), αMeL, D-Glu; lipidated K; amide; (2)..(2) Xaa at position 2 is Aib; (6)..(6) Xaa at position 6 is alpha-methyl-Phe(2F); (13)..(13) Xaa at position 13 is alpha-methyl-Leu; MOD_RES (17)..(17) Lys at position 17 is chemically modified by conjugation of the epsilon-amino group of the Lys side chain with (2-[2-(2-amino-ethoxy)-ethoxy]-acetyl)2-CO-(CH2)18-CO2H; (20)..(20) Xaa at position 20 is Aib; (24)..(24) Xaa at position 24 is D-Gl) [Peptide 174]”, the “[hGIPR/hGLP1R] EC50 Ratio” value turned out to be 4.99. “Y-Aib-EGT-αMeF(2F)-TSDLSI-αMeL-LD-Orn-K((2-[2-(2-Amino-ethoxy)-ethoxy]-acetyl)2-(γGlu)-CO—(CH2)16—CO2H)AQ-Aib-AFI-(D-Glu)-αMeY-LIEGGPSSGAPPPS-NH2 (YXEGTXTSDLSIXLDXKAQXAFIXXLIEGGPSSGAPPPS; Aib, Orn, αMe residues, lipidated Lys, D-Glu, amide; (2)..(2) Xaa at position 2 is Aib; (6)..(6) Xaa at position 6 is alpha-methyl-Phe(2F); (13)..(13) Xaa at position 13 is alpha-methyl-Leu; (16)..(16) Xaa at position 16 is Orn; MOD_RES (17)..(17) Lys at position 17 is chemically modified by conjugation of the epsilon-amino group of the Lys side chain with (2-[2-(2-amino-ethoxy)-ethoxy]-acetyl)2-(gamma-Glu)-CO-(CH2)16- CO2H; (20)..(20) Xaa at positi) [Peptide 244]”: the “[hGIPR/hGLP1R] EC50 Ratio” value was found to be 6.41. With “Y-Aib-EGT-αMeF(2F)-TSDLSI-αMeL-LD-Orn-K((2-[2-(2-Amino-ethoxy)-ethoxy]-acetyl)2-(γGlu)-CO—(CH2)16—CO2H)AQ-Aib-EFI-(D-Glu)-αMeY-LIEGGPSSGAPPPS-NH2 (YXEGTXTSDLSIXLDXKAQXEFIXXLIEGGPSSGAPPPS; Aib, Orn, αMe residues, lipidated Lys, D-Glu, amide; (2)..(2) Xaa at position 2 is Aib; (6)..(6) Xaa at position 6 is alpha-methyl-Phe(2F); (13)..(13) Xaa at position 13 is alpha-methyl-Leu; (16)..(16) Xaa at position 16 is Orn; MOD_RES (17)..(17) Lys at position 17 is chemically modified by conjugation of the epsilon-amino group of the Lys side chain with (2-[2-(2-amino-ethoxy)-ethoxy]-acetyl)2-(gamma-Glu)-CO-(CH2)16- CO2H; (20)..(20) Xaa at positi) [Peptide 238]”, the “[hGIPR/hGLP1R] EC50 Ratio” value turned out to be 6.37. Turning to “Y-Aib-EGT-αMeF(2F)-TSDLSI-αMeL-LD-Orn-K((2-[2-(2-Amino-ethoxy)-ethoxy]-acetyl)2-(γGlu)-CO—(CH2)16—CO2H)AQ-Aib-TFI-(D-Glu)-αMeY-LIEGGPSSGAPPPS-NH2 (YXEGTXTSDLSIXLDXKAQXTFIXXLIEGGPSSGAPPPS; Aib, Orn, αMe residues, lipidated Lys, D-Glu, amide; (2)..(2) Xaa at position 2 is Aib; (6)..(6) Xaa at position 6 is alpha-methyl-Phe(2F); (13)..(13) Xaa at position 13 is alpha-methyl-Leu; (16)..(16) Xaa at position 16 is Orn; MOD_RES (17)..(17) Lys at position 17 is chemically modified by conjugation of the epsilon-amino group of the Lys side chain with (2-[2-(2-amino-ethoxy)-ethoxy]-acetyl)2-(gamma-Glu)-CO-(CH2)16- CO2H; (20)..(20) Xaa at positi) [Peptide 243]”, the “[hGIPR/hGLP1R] EC50 Ratio” value was 7.12.
